Measured values as given in patent publication US20210380664A1.

Columns and labels:
[1] = biological target: HCMV virus particles, strain TB40/E; test: cell-based or functional assay
[2] = biological target: HCMV virus particles, strain TB40/E; test: immunofluorescence: intensity of anti-human Fc staining per virus particle on HFFs at different PDGFR-alpha-Fc concentrations

## soluble PDGFR-alpha-Fc chimera (R&D 6765-PR-050) (Fc fusion)
[1]
  EC50 of inhibition of infection of HECs (IE antigen staining): 0.02 to 0.05 µg/mL
  EC50 of inhibition of infection of HFFs (IE antigen staining): 0.01 to 0.02 µg/mL
  complete abrogation of infection of HFFs: 200 ng/mL
  infectivity of already adsorbed virus on HFFs (200 ng/ml, post adsorption): 50%
  reduction of adsorption of pre-treated virus particles to HECs (100 ng/ml): 75%
  reduction of adsorption of pre-treated virus particles to HFFs (100 ng/ml): 50%
  reduction of penetration of pre-treated virus particles into HFFs (100 ng/ml): 75%
[2]
  EC50: 0.108 µg/mL
